B1: monoclonal antibody 4b1.h9 (antibody, V domains shown)
VH: EVQLQESGPVLVKPGASVKMSCKASGYTFTDYYMNWVKQSHGKSLEWIGVINPYNGGTSYNQKFKGKATLTVDKSSSTAYMELNSLTSEDSAVYYCARRRGYAMDYWGQGTSVTVSS
VL: DIQMTQSPASLSASVGETVTITCRASENIYSYLAWYQQKQGKSPQLLVYNAKTLAEGVPSRFSGSGSGTQFSLKINSLQPEDFGSYYCQHHYGTPYTFGGGTNLEIK
B2: monoclonal antibody 5a8.b11 (antibody, V domains shown)
VH: EVQLQESGPELVKPGASVKIPCKASGYTFTDYNMDWVKQSHGKSLEWIGDINPNNGGTIYNQKFKGKATLTVDKSSSTAYMELRSLTSEDTAVYYCARKGERGFDYWGQGTTLTVSS
VL: ENVLTQSPAIMSASLGEKVTMSCRASSSVNYMYWYQQKSDASPKLWIYYTSNLAPGVPARFSGSGSGNSYSLTISSMEGEDAATYYCQQFTSSPSTFGAGTKLELK
B3: monoclonal antibody 7b6.b12 (antibody, V domains shown)
VH: EVQLQESGAELVKPGASVKISCKVSGYTFTDHTIHWMKQRPEQGLEWIGYIYPRDGSTKYNEKFKGKATLTADKSSSTAYMQLNSLTSEDSAVYFCARPYDYAWFAYWGQGTLVTVSA
VL: DILLTQSPAILSVSPGERVSFSCRASQSIGTSIHWYQQRTNGSPRLLIKYASESISGIPSRFSGSGSGTDFTLSINSVESEDIADYYCQQSNSWPFTFGSGTKLEIK
notes: Mouse hybridoma mAb raised against NUCB1-capped hIAPP protofibrils; kappa light chain; also called mAb 7b6.b12
B4: monoclonal antibody 4a8.e11 (antibody, V domains shown)
VH: EVQLQESGGGLVKPGGSLKLSCAASGFTFSDYGMHWVRQAPEKGLEWVAYISSGSSTVYCADTVKGRFTISRDNAKNTLFLQMTSLRSEDTAMYYCARRWGYFDYWGQGTTLTVSS
VL: DIKMTQSPSSMYASLGERVTFTCKASQDINSFLSWFQQKPGKSPKTLIYRANRLVDGVPSRFSGSGSGQDYSLTITSLEFEDMGIYYCLQYDEFPYTFGGGTKLEIK
notes: Mouse hybridoma mAb raised against NUCB1-capped hIAPP protofibrils; kappa light chain; also called mAb 4a8.e11
B5: monoclonal antibody 3f2.e10 (antibody, V domains shown)
VH: EVQLQESGGGLVQPKGSLKLSCAASGFSFNTYAMNWVRQAPGKGLEWVARIRSKSNNYATYYADSVKDRFTISRDDSESMLYLQMNNLKTEDTAMYYCVRLGAMDYWGQGTSVTVSS
VL: DIVMTQSQKFMSTSVGDRVSVTCKASQNVGTNVAWYQQKPGQSPKALIYSASYRYSGVPDRFTGSGSGTDFTLTISNVQSEDLAEYFCQQYNSYPLTFGAGTKLEL
B6: monoclonal antibody 5c9.a2 (antibody, V domains shown)
VH: EVQLQESGPVLVKPGASVKMSCKASGYTFTDYYMNWVKQSHGKSLEWIGVINPYNGGTSYNQKFKGKATLTVDKSSSTAYMELNSLTSEDSAVYYCASLRRRTDYFDYWGQGTTLTVSS
VL: DIVMTQSHKFMSTSVGDRVSITCKASQDVGTAVAWYQQKPGQSPKLLIYWASTRHTGVPDRFTGSGSGTDFTLTISNVQSEDLADYFCQQYSSYPLTFGAGTKLELK

Each binder was assayed against Recombinant Aβ1-42 (rAβ1-42 peptides) in the Thioflavin T fibril formation assay (UniProt P05067 672-713) (assay: cell-based or functional assay).
Recombinant Aβ1-42 (rAβ1-42 peptides) in the Thioflavin T fibril formation assay, sequence (P05067 672-713 limits assumed): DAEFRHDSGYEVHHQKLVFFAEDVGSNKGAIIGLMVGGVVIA

T50 (time in minutes for 50% inhibition of fibril formation) | Binder
60.7 min | B1
40.3 min | B2
40.2 min | B3
37.9 min | B4
42.6 min | B5
43.2 min | B6

These binders were tested against T1, amyloid-β Aβ(M1-42) peptide, structures along the aggregation pathway (Aβ1-42 protofibrils) (assay: dot blot of aggregation time points (FIG. 18)).
T1 construct: Expressed in E. coli
Text: (A) Aβ₁₋₄₂ aggregation in a thioflavin T fluorescence assay guided sample collection (red circles) for a dot blot assay. (B) Samples from these time points were spotted on PVDF membranes and blotted with an anti-Aβ mAb to detect total Aβ₁₋₄₂, or with 4a8.e11, 3f2.e10, or 7b6.b12. (C) Bar graph showing quantitation of 4a8.e11 reactive material at indicated timepoints. (D) Bar graph showing quantitation of 3f2.e10 reactive material at indicated timepoints. (E) Bar graph showing quantitation of 7b6.b12 reactive material at indicated timepoints. The spots were quantified with ImageJ and normalized to total Aβ₁₋₄₂.
For kinetic experiments, aliquots of the purified Aβ42 were resuspended in 6M guanidinium hydrochloride and subjected to gel filtration on a Superdex Peptide column in 20 mM sodium phosphate buffer, pH 8, with 200 μM EDTA. The monomer-containing peak was then lyophilized and subjected to a second round of resuspension in 6M guanidinium hydrochloride and gel filtration on a Superdex Peptide column in 20 mM sodium phosphate buffer, pH 8, with 200 μM EDTA. […] Fluorescence measurements were made at regular intervals using FlexStation III (Molecular Devices) with excitation and emission at 440 and 480 nm, respectively. Each experimental point is the mean of the fluorescence signal of 6 wells containing aliquots of the same solution. […]

T1 sequence (peptide, as listed by the source): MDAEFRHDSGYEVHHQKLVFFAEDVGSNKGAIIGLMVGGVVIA

binding result | Binder
binds | B3
binds | B4

From US20160251419A1 (ROCKEFELLER UNIVERSITY, published 2016)
